Substrate in the data set: O=C(O)/C=C1/C=CC(=O)O1
Put plainly: purified protein. It is filed as biochemical, Cupriavidus pinatubonensis. The settings on record: Tris-Cl pH 7.0, 37 °C, 0.5 µM enzyme, 1-1000 µM substrate.

B1: TfdEII (Cupriavidus pinatubonensis JMP134) (protein)
chain: MCHDTAPALFPRTASTGSIDGAICALCYAGATRGPRLLVLPDIYGCNAFYRGYAAYLAEQGAGEVLLVDPFAAFGELATVTREAAFQRRHRLADRAYVEELIDFIDGQRIEGVVGFCLGGLFVFELARQQVVSRLVAYYPFPQGLENRDPLDVPFDYLPALRSRHTVIVGDDDALLGTQNLQRLQAQARANDAIDLHIMNGAGHGFLADLESPDTARAAVAKRGLRIGTTTLLGG
notes: full-length tfdEII ORF (708 bp, 235 aa) in pET21b BamHI/HindIII; stop codon in reverse primer; E. coli BL21(DE3); about 25 kDa, monomeric
For the protein B1, the Michaelis-Menten constant (Km) is reported as 178 µM and the maximum rate (Vmax) was 8.38 µM/min.

B2: TfdEI (Cupriavidus pinatubonensis JMP134) (protein)
chain: MLSDGVEITSRSGGRFGAYLGKPTTDSAPIVVIAQEIFGITPFIRETVEWLVGAGFGCVCPDLYWRQAPNIELDANVPSEREQALALFRDFDMEAGVNDLSCAIEYARALPFSNGRVAVVGYCLGGALAFDVAARSLADCSIGYYGVGLEKKVSLVPAITRPAMFHMGTKDHYVTEEARSILEEHFGRNKNLSLHWYPVGHSFARSSSPNFDQAATTVANARTLELLAMLKDPS
notes: full-length tfdEI ORF (705 bp, 234 aa) in pET21b BamHI/HindIII; stop codon in reverse primer; E. coli BL21(DE3); about 25 kDa, monomeric
As to B2, the Km is 84 µM and the Vmax is 9.09 µM/min.

The values are drawn from paper PMC4108320, “Two Structurally Different Dienelactone Hydrolases (TfdEI and TfdEII) from Cupriavidus necator JMP134 Plasmid pJP4 Catalyse Cis- and Trans-Dienelactones with Similar Efficiency” (PLoS ONE, 2014).
